{"source": "patent US20230331829A1", "about": "(KOREA ADVANCED INSTITUTE OF SCIENCE AND TECHNOLOGY, published 2023)", "binders": {"B1": {"name": "anti-PROX1-single chain Fv-His (clone #1A11) (scFv, V domains shown)", "VH": "AVTLDESGGGLQTPGGGLSLVCKASGFTFSSYAMNWVRQAPGKGLEWVAAIDDDGSYTGYGSAVKGRATISRDNGQSTVRLQLNNLRAEDTAIYYCAKAAGSGYCYRGANSSYTCGTYNAGDIDAWGHGTEVIVSS", "VL": "LTQPSSVSANLGETVEITCSGGSGSYGWYQQKSPGSAPVTLIYDNANRPSNIPSRFSGSKSGSTGTLTITGVRAEDEAVYYCGNVDSSTYVGMFGAGTTLTVL", "notes": "One polypeptide (scFv from a chicken antibody phage display library) with a hexa-histidine tag; used as phage periplasmic supernatant; also called anti-PROX1-scFv-His; scFv-His"}}, "target": "T1, PROX1 protein of mouse retinal tissue (mouse, UniProt P48437 1-737)", "T1 construct": "Endogenous protein", "T1 sequence (looked up)": "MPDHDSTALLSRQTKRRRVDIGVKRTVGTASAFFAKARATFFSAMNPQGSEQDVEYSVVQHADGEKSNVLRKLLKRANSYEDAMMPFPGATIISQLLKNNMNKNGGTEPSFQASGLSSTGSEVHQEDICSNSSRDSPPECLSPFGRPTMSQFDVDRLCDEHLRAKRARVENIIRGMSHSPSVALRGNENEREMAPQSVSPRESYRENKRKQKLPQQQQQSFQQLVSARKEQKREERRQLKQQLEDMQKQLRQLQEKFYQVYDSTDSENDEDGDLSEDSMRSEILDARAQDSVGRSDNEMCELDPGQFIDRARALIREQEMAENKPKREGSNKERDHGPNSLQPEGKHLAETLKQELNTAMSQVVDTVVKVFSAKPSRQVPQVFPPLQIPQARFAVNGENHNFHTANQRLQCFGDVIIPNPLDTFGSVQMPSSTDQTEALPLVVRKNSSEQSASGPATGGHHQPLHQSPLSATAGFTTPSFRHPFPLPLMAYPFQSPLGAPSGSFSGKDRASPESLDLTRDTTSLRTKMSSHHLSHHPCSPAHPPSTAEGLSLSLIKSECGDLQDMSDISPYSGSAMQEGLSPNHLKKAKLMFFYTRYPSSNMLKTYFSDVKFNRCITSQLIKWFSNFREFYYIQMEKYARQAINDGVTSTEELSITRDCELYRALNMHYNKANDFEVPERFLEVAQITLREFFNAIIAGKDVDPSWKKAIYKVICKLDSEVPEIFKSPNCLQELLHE", "assay": "immunoprecipitation with Ni-NTA beads from mouse retinal tissue lysate, Western blot", "experimental": "Protein samples were prepared from mice cortex tissue not expressing PROX1 protein and mouse retinal tissue expressing PROX1 protein and PROX1 neutralizing single chain antibody (anti-PROX1-scFv-His) at 4° C. for 16 hours, followed by Ni-NTA beads for 4 hours. Thereafter, the Ni-NTA bead immune complex was washed five times with a washing buffer (50 mM imidazole and protease inhibitor) and a Western blot experiment was performed to confirm the binding ability of the single chain antibody to the PROX1 protein.\nThereafter, the Ni-NTA bead immune complex was washed 5 times with a washing buffer (50 mM imidazole and protease inhibitor) and a Western blot experiment was performed to confirm the binding ability of the PROX1 neutralizing single chain antibody to the PROX1 protein (see FIG. 1).", "data": [{"binder": "B1", "values": [{"measurement": "binding result", "result": "binds"}]}]}
